Source: patent publication US20130331738A1, “COMPOSITIONS AND METHODS FOR POTENTIATING SONOTHROMBOLYSIS” (Board of Trustees University of Arkansas, priority 2012, published 2013)

Test system: rigid clots (pooled rabbit plasma, fresh rabbit blood cells, thrombin)
Assay: Sonothrombolysis of aged and rigid clots, 1 MHz pulsed ultrasound in a Mylar flow chamber
Conditions: 0.1 mg/mL of tPA and/or MBs at about 0.5-2.5×10^8 MB/mL
Method: To assess the effect of CPDL and/or degradable starch nanoparticles on the efficacy of sonothrombolysis, the following experiment was conducted. Rigid clots were formed by mixing pooled rabbit plasma with fresh rabbit blood cells and 30 U/mL of thrombin. The clots were incubated at 37° C. in glass tubes for 24 h followed by curing at 5° C. for 24 h. The total clot volumes and mass densities of each main clot were measured, and then 9-11 mg pieces were cut from the main clot. Each clot piece was weighed and then insonated with 1 MHz, pulsed ultrasound in a Mylar flow chamber through which fresh rabbit serum containing tPA and/or microbubbles (MBs) were introduced continuously. Sonothrombolysis efficacy was quantified as the % of clot mass lysed in 15 min. A stable nanoemulsion of CPDL at a concentration ranging from about 0.003-0.06% w/V, and/or 50-200 nm degradable starch nanoparticles were added to the system to enhance sonothrombolysis efficacy.

B1: tPA: tissue plasminogen activator (protein, UniProt P00750 36-562, looked up)
Tissue-type plasminogen …: SYQVICRDEKTQMIYQQHQSWLRPVLRSNRVEYCWCNSGRAQCHSVPVKSCSEPRCFNGGTCQQALYFSDFVCQCPEGFAGKCCEIDTRATCYEDQGISYRGTWSTAESGAECTNWNSSALAQKPYSGRRPDAIRLGLGNHNYCRNPDRDSKPWCYVFKAGKYSSEFCSTPACSEGNSDCYFGNGSAYRGTHSLTESGASCLPWNSMILIGKVYTAQNPSAQALGLGKHNYCRNPDGDAKPWCHVLKNRRLTWEYCDVPSCSTCGLRQYSQPQFRIKGGLFADIASHPWQAAIFAKHRRSPGERFLCGGILISSCWILSAAHCFQERFPPHHLTVILGRTYRVVPGEEEQKFEVEKYIVHKEFDDDTYDNDIALLQLKSDSSRCAQESSVVRTVCLPPADLQLPDWTECELSGYGKHEALSPFYSERLKEAHVRLYPSSRCTSQHLLNRTVTDNMLCAGDTRSGGPQANLHDACQGDSGGPLVCLNDGRMTLVGIISWGLGCGQKDVPGVYTKVTNYLDWIRDNMRP
efficacy of sonothrombolysis for more rigid and aged clots: reduced markedly
